# Measurements: PMC6403256, “ABHD5 blunts the sensitivity of colorectal cancer to fluorouracil via promoting autophagic uracil yield” (Nature Communications, 2019)
# B1: human ABHD5 recombinant protein (probe on the HuProt chip) (natural protein, UniProt Q8WTS1 1-349, looked up)
# chain: MAAEEEEVDSADTGERSGWLTGWLPTWCPTSISHLKEAEEKMLKCVPCTYKKEPVRISNGNKIWTLKFSHNISNKTPLVLLHGFGGGLGLWALNFGDLCTNRPVYAFDLLGFGRSSRPRFDSDAEEVENQFVESIEEWRCALGLDKMILLGHNLGGFLAAAYSLKYPSRVNHLILVEPWGFPERPDLADQDRPIPVWIRALGAALTPFNPLAGLRIAGPFGLSLVQRLRPDFKRKYSSMFEDDTVTEYIYHCNVQTPSGETAFKNMTIPYGWAKRPMLQRIGKMHPDIPVSVIFGARSCIDGNSGTSIQSLRPHSYVKTIAILGAGHYVYADQPEEFNQKVKEICDTVD
# notes: ABHD5, human, recombinant protein used to probe the HuProt human protein chip; The methods list two recombinant ABHD5 proteins: His-ABHD5 (Wuhan GeneCreate) and ABHD5 (Human) recombinant protein H00051099-P01 (Novus)
# B2: His-tagged full-length ABHD5 (natural protein, human, UniProt Q8WTS1 1-349, looked up)
# chain: MAAEEEEVDSADTGERSGWLTGWLPTWCPTSISHLKEAEEKMLKCVPCTYKKEPVRISNGNKIWTLKFSHNISNKTPLVLLHGFGGGLGLWALNFGDLCTNRPVYAFDLLGFGRSSRPRFDSDAEEVENQFVESIEEWRCALGLDKMILLGHNLGGFLAAAYSLKYPSRVNHLILVEPWGFPERPDLADQDRPIPVWIRALGAALTPFNPLAGLRIAGPFGLSLVQRLRPDFKRKYSSMFEDDTVTEYIYHCNVQTPSGETAFKNMTIPYGWAKRPMLQRIGKMHPDIPVSVIFGARSCIDGNSGTSIQSLRPHSYVKTIAILGAGHYVYADQPEEFNQKVKEICDTVD
# notes: ABHD5, human, wild type, full length; also called His-ABHD5; source: recombinant protein from Wuhan GeneCreate Biological Engineering Co., Ltd
# B3: GST-ABHD5 (natural protein, human, UniProt Q8WTS1 1-349, looked up)
# chain: MAAEEEEVDSADTGERSGWLTGWLPTWCPTSISHLKEAEEKMLKCVPCTYKKEPVRISNGNKIWTLKFSHNISNKTPLVLLHGFGGGLGLWALNFGDLCTNRPVYAFDLLGFGRSSRPRFDSDAEEVENQFVESIEEWRCALGLDKMILLGHNLGGFLAAAYSLKYPSRVNHLILVEPWGFPERPDLADQDRPIPVWIRALGAALTPFNPLAGLRIAGPFGLSLVQRLRPDFKRKYSSMFEDDTVTEYIYHCNVQTPSGETAFKNMTIPYGWAKRPMLQRIGKMHPDIPVSVIFGARSCIDGNSGTSIQSLRPHSYVKTIAILGAGHYVYADQPEEFNQKVKEICDTVD
# notes: ABHD5, human
# Assays:
# Details in all cases: both partners purified
# [1] = molecular target: T1, PDIA5 on the HuProt human protein chip (human, UniProt Q14554 22-519); experiment: peptide or protein array; human ABHD5 recombinant protein used to probe the HuProt human protein chip
# T1 construct: PDIA5, human, as spotted on the HuProt human protein chip; source: spotted on the HuProt human protein chip
# T1 sequence (looked up): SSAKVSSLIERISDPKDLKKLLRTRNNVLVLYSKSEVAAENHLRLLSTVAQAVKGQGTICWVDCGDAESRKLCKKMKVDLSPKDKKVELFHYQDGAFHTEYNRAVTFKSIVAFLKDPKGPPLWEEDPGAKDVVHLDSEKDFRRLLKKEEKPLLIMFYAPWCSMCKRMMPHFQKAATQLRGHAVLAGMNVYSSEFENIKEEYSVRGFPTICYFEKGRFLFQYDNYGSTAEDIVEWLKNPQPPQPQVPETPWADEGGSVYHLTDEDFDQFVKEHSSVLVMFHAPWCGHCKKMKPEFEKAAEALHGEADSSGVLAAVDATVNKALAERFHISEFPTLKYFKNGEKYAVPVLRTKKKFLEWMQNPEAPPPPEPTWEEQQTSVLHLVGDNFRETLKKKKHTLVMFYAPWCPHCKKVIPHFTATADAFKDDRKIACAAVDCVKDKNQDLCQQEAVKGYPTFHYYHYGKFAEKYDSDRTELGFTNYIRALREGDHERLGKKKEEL
# [2] = molecular target: T2, GST-tagged wild type PDIA5 (human, UniProt Q14554 22-519); experiment: pull-down; Ni-NTA bead pull-down: 50 ug GST, GST-PDIA5 or mutant GST-PDIA5 with 50 ug immobilized His-ABHD5 or His-RNASET2; 20 mM Tris pH 8.0, 100 mM NaCl, 0.2% Triton X-100; 4 C, 4 h; eluates blotted with anti-GST
# T2 construct: PDIA5, human, wild type; also called GST-PDIA5; wild type PDIA5 (W); source: expressed and purified; recombinant protein from Wuhan GeneCreate Biological Engineering Co., Ltd
# T2 sequence (looked up): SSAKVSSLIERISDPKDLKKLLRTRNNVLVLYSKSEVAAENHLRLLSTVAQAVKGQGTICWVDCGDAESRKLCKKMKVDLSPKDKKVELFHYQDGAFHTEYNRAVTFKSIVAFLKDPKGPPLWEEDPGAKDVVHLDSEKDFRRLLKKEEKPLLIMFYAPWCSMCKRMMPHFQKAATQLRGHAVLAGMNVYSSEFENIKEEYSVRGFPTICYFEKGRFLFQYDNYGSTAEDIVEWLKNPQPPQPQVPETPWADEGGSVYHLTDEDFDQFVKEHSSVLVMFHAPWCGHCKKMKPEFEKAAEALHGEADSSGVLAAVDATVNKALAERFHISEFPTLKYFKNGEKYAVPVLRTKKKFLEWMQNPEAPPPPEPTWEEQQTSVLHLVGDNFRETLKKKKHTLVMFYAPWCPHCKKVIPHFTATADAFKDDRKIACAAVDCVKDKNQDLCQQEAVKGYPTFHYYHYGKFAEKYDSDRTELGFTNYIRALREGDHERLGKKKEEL
# His-PDIA5 = molecular target: T3, His-PDIA5 (human, UniProt Q14554 22-519); experiment: pull-down; competitive binding: 50 ug GST-RNASET2 mixed with 0, 50, 100, 200 ug GST-ABHD5, incubated with 50 ug immobilized His-PDIA5 at 4 C for 4 h; detected by blot
# T3 construct: PDIA5, human, wild type; source: recombinant protein from Wuhan GeneCreate Biological Engineering Co., Ltd
# T3 sequence (looked up): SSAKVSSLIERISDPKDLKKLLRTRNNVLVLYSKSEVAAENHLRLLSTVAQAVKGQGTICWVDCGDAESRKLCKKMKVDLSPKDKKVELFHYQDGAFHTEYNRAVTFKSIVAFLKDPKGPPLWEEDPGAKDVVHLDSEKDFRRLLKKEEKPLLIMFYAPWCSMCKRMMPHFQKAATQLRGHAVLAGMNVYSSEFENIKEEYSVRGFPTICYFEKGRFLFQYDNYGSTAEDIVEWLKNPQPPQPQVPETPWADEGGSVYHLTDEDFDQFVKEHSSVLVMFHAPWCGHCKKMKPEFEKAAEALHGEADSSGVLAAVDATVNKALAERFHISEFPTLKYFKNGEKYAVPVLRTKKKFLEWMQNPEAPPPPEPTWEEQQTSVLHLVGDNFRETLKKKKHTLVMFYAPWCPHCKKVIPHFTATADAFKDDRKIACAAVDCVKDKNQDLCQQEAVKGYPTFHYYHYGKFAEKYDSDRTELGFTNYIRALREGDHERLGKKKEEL
binder,measurement,setting,value
B1,binding result,[1],binds
B2,binding result,[2],binds
B3,binding result,His-PDIA5,binds
